According to article PMC6211522:

Key:
[1] = target: FLAG-tagged PARP-1 in HEK293T cells (UniProt P09874); experiment: co-IP (anti-FLAG) and Western blotting, band intensity by ImageJ; details: 48 h post-transfection, parent: 1.0
[2] = target: MHV-68 viral PARP-1-interacting protein (vPIP; ORF49), purified recombinant (murine gammaherpesvirus 68 (MHV-68)); experiment: SEC-MALS; 50 mM HEPES pH 7.5, 100 mM NaCl; WTC-050S5 column, DAWN HELEOS II and Optilab T-rEX detectors
[3] = target: His-tagged mouse PARP-1 protein (Sino Biological) (mouse) (UniProt P11103); experiment: SPR; […], CM5 chip; […], HBS-EP (10 mM HEPES pH 7.4, 150 mM NaCl, 3 mM EDTA, 0.005% P20); 1:1 binding model
Sequence of UniProt P11103 (P11103 whole entry): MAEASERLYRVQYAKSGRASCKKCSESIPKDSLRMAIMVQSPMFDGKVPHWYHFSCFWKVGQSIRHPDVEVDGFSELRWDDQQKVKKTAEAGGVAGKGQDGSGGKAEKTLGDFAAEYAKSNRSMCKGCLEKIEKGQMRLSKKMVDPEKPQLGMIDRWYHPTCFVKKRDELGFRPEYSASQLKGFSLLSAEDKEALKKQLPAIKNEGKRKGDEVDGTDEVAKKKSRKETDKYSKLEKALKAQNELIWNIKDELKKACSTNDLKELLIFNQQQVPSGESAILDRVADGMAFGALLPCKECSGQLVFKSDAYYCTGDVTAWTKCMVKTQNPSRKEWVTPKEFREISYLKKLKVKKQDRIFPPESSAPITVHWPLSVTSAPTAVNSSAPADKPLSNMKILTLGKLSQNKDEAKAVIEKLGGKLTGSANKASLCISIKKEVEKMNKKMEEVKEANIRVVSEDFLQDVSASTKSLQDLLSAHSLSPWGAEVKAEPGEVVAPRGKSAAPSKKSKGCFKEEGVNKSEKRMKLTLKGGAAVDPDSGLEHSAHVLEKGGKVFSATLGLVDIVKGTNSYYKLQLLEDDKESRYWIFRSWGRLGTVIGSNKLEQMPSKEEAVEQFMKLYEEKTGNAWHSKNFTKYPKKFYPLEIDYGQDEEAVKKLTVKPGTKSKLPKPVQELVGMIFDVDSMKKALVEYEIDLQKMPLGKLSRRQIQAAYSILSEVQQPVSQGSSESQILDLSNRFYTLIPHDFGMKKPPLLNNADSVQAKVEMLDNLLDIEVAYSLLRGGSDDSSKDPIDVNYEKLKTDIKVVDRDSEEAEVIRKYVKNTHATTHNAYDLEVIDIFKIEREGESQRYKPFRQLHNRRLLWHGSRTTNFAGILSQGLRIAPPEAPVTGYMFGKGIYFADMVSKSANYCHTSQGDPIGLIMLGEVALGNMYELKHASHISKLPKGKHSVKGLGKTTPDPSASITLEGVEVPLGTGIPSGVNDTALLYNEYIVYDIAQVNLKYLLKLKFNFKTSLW

Sequence of UniProt P09874 (P09874 whole entry): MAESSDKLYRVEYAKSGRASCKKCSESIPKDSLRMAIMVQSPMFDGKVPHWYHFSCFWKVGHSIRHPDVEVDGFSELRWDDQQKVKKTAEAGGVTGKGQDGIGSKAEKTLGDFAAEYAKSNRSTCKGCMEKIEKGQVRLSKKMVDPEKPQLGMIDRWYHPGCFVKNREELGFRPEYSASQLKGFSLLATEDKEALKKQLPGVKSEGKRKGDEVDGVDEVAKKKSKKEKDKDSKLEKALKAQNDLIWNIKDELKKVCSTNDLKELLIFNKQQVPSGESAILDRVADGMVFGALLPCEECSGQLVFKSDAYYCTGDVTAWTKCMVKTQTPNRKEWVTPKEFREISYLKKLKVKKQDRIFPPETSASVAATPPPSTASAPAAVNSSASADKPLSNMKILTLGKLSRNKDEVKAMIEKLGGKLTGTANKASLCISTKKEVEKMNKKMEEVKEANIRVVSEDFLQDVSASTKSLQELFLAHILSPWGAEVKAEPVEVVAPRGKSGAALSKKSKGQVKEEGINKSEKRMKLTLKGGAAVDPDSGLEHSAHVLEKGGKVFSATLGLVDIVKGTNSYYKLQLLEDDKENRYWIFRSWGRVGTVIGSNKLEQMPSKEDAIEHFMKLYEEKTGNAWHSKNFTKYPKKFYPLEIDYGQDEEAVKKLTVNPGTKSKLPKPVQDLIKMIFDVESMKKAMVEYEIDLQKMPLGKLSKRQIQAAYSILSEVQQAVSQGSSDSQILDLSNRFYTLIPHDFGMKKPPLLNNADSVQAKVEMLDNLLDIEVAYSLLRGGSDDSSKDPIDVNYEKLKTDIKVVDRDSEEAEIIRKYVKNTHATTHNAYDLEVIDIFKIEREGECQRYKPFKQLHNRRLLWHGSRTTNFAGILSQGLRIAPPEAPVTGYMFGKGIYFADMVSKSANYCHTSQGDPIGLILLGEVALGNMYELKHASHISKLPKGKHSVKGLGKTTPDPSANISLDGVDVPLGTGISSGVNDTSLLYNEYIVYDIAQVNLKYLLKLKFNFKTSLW

| Substance | ratio to parent [1] | stoichiometry N [2] | Kd [3] |
| --- | --- | --- | --- |
| MYC-tagged vPIP wild type in HEK293T cells F5A; S12A; T16A | 0.5 | – | – |
| MHV-68 viral PARP-1-interacting protein (vPIP; ORF49), purified recombinant (natural protein) | – | 2 | 930 nM |
| MYC-tagged vPIP wild type in HEK293T cells F5A; S12A; T16A; H47A; D50A | 0.3 | – | – |
| MYC-tagged vPIP wild type in HEK293T cells H47A; D50A | 1.4 | – | – |
| ORF49_(KSHV), purified recombinant (natural protein) | – | – | 410 nM |
